This test addresses CTLA4-FRB*-HA (UniProt P16410).

“FLAG-FKBP-USP15 WT (from UniProt P62942 2-108) (enzyme)” had a CTLA4-FH protein level by Western blot after Dox induction of FF-USP15 WT (18 h) and A/C 500 nM (24 h) above 2 fold.
